From IntAct's records for PubMed 27478939

B1: Purine nucleoside phosphorylase LACC1 (Homo sapiens), Q8IV20 (parent)
chain: MAEAVLIDLFGLKLNSQKNCHQTLLKTLNAVQYHHAAKAKFLCIMCCSNISYERDGEQDNCEIETSNGLSALLEEFEIVSCPSMAATLYTIKQKIDEKNLSSIKVIVPRHRKTLMKAFIDQLFTDVYNFEFEDLQVTFRGGLFKQSIEINVITAQELRGIQNEIETFLRSLPALRGKLTIITSSLIPDIFIHGFTTRTGGISYIPTLSSFNLFSSSKRRDPKVVVQENLRRLANAAGFNVEKFYRIKTHHSNDIWIMGRKEPDSYDGITTNQRGVTIAALGADCIPIVFADPVKKACGVAHAGWKGTLLGVAMATVNAMIAEYGCSLEDIVVVLGPSVGPCCFTLPRESAEAFHNLHPACVQLFDSPNPCIDIRKATRILLEQGGILPQNIQDQNQDLNLCTSCHPDKFFSHVRDGLNFGTQIGFISIKE

Variants of: B1
Settings: with fas_human FASN

Row | Variant | effect of a mutation on the interaction
1 | MAEAVLIDLFGLKLNSQKNCHQTLLKTLNAVQYHHAAKAKFLCIMCCSNISYERDGEQDNCEIETSNGLSALLEEFEIVSCPSMAATLYTIKQKIDEKNLSSIKVIVPRHRKTLMKAFIDQLFTDVYNFEFEDLQVTFRGGLFKQSIEINVITAQELRGIQNEIETFLRSLPALRGKLTIITSSLIPDIFIHGFTTRTGGISYIPTLSSFNLFSSSKRRDPKVVVQENLRRLANAAGFNVEKFYRIKTHHSNDVWIMGRKEPDSYDGITTNQRGVTIAALGADCIPIVFADPVKKACGVAHAGWKGTLLGVAMATVNAMIAEYGCSLEDIVVVLGPSVGPCCFTLPRESAEAFHNLHPACVQLFDSPNPCIDIRKATRILLEQGGILPQNIQDQNQDLNLCTSCHPDKFFSHVRDGLNFGTQIGFISIKE [I254V] | with no effect
